Key:
Assay in all cases: holdup assay
Parameters in all cases: key: below the threshold = too weak to quantify, mostly under pKd 3.1 to 4
GRIP2_4, Q9C0E4 = target: GRIP2_4, Q9C0E4
TJP2_1, Q9UDY2 = target: TJP2_1, Q9UDY2
MAGI1_1, Q96QZ7 = target: MAGI1_1, Q96QZ7
PTPN3, P26045 = target: PTPN3, P26045
DLG3_1, Q92796 = target: T1, DLG3_1, Q92796
T1 sequence (Q92796 125-227, limits assumed, looked up): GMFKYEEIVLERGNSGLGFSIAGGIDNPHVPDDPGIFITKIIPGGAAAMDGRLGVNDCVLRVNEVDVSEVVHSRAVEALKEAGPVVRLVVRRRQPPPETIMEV

APBA3_1, O96018 = target: T2, APBA3_1, O96018
T2 sequence (O96018 389-490, limits assumed, looked up): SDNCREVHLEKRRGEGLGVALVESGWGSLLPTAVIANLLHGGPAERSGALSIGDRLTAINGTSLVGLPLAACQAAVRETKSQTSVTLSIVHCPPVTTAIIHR

SNX27, Q96L92 = target: SNX27, Q96L92
NHERF4_4, Q86UT5 = target: NHERF4_4, Q86UT5
FRMPD3, Q5JV73 = target: FRMPD3, Q5JV73
ARHGEF11, O15085 = target: T3, ARHGEF11, O15085
T3 sequence (O15085 42-136, limits assumed, looked up): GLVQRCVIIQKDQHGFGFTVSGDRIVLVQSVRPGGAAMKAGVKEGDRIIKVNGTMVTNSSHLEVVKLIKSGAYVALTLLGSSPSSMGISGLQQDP

LNX2_3, Q8N448 = target: T4, LNX2_3, Q8N448
T4 sequence (Q8N448 463-564, limits assumed, looked up): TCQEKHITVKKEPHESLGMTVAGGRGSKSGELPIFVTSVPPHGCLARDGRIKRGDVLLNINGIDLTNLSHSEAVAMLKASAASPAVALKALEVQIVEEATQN

GRIP1_4, Q9Y3R0 = target: T5, GRIP1_4, Q9Y3R0
T5 sequence (Q9Y3R0 467-571, limits assumed, looked up): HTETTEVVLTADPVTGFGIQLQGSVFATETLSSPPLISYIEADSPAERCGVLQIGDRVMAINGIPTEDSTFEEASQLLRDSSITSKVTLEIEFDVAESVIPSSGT

MAST2, Q6P0Q8 = target: MAST2, Q6P0Q8
SCRIB_1, Q14160 = target: SCRIB_1, Q14160
DLG4_2, P78352 = target: DLG4_2, P78352
LNX1_2, Q8TBB1 = target: LNX1_2, Q8TBB1
IL16_4, Q14005 = target: IL16_4, Q14005
LRRC7, Q96NW7 = target: T6, LRRC7, Q96NW7
T6 sequence (Q96NW7 1440-1537, limits assumed, looked up): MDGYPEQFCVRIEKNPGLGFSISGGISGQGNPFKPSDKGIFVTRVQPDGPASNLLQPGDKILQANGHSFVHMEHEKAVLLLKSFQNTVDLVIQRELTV

GRID2IP_2, A4D2P6 = target: GRID2IP_2, A4D2P6
PDZD2_2, O15018 = target: T7, PDZD2_2, O15018
T7 sequence (O15018 329-429, limits assumed, looked up): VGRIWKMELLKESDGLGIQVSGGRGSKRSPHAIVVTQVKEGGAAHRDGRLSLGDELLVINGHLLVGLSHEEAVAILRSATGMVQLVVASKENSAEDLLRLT

GRIP2_6, Q9C0E4 = target: GRIP2_6, Q9C0E4
SYNJ2BP, P57105 = target: T8, SYNJ2BP, P57105
T8 sequence (P57105 8-110, limits assumed, looked up): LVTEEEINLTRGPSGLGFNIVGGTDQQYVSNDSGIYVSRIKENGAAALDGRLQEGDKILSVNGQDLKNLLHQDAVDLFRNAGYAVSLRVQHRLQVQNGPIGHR

DFNB31_1, Q9P202 = target: T9, DFNB31_1, Q9P202
T9 sequence (Q9P202 135-233, limits assumed, looked up): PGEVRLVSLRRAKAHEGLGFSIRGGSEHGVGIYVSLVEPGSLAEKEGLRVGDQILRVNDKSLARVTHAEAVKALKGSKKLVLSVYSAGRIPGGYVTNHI

IL16_1, Q14005 = target: IL16_1, Q14005
PARD3_3, Q8TEW0 = target: PARD3_3, Q8TEW0
HTRA3, P83110 = target: T10, HTRA3, P83110
T10 sequence (P83110 354-453, limits assumed, looked up): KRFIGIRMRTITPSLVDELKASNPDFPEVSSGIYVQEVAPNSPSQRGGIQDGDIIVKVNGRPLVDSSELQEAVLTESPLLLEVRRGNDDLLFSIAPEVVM

MAGI3_2, Q5TCQ9 = target: MAGI3_2, Q5TCQ9
[1] = plain residues with an end cap or a label only (N-terminal biotin on a linker: ttds)
[2] = plain residues with an end cap or a label only (N-terminal biotin on a linker: ado-ado)

Sequence of PTPN3, P26045 (P26045 505-587): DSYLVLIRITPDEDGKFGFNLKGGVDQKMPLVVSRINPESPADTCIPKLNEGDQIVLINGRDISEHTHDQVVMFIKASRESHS
Sequence of IL16_4, Q14005 (Q14005 1229-1329): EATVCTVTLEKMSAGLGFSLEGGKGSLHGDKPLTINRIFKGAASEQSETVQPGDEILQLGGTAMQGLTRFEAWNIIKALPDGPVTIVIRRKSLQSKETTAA
Sequence of LNX1_2, Q8TBB1 (Q8TBB1 371-470): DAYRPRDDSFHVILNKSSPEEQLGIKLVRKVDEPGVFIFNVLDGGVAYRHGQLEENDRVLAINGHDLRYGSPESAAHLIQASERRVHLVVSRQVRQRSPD
Sequence of NHERF4_4, Q86UT5 (Q86UT5 464-550): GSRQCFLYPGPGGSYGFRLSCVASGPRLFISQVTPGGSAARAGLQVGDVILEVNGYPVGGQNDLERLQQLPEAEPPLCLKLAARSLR
Sequence of MAGI3_2, Q5TCQ9 (Q5TCQ9 398-503): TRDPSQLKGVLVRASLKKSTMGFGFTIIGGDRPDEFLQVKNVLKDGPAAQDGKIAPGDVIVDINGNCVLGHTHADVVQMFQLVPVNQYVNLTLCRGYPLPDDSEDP
Sequence of FRMPD3, Q5JV73 (Q5JV73 12-100): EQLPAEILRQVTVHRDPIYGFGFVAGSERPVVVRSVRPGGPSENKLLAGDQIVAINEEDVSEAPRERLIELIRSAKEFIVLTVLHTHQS
Sequence of GRIP2_6, Q9C0E4 (Q9C0E4 648-740): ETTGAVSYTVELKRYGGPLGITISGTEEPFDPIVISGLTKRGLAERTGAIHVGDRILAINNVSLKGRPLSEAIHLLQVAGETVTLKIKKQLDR
Sequence of MAGI1_1, Q96QZ7 (Q96QZ7 1-106): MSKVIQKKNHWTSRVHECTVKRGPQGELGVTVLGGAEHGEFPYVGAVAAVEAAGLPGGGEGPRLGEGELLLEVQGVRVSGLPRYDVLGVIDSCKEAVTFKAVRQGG
Sequence of GRIP2_4, Q9C0E4 (Q9C0E4 446-548): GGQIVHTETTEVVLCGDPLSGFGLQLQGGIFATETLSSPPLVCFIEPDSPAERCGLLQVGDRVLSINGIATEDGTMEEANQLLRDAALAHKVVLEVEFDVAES
Sequence of SCRIB_1, Q14160 (Q14160 718-814): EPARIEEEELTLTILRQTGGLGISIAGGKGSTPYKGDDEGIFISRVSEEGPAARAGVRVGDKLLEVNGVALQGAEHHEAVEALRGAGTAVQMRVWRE
Sequence of MAST2, Q6P0Q8 (Q6P0Q8 1099-1202): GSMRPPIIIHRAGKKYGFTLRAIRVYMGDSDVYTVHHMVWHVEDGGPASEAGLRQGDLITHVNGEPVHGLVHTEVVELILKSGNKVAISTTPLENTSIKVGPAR
Sequence of PARD3_3, Q8TEW0 (Q8TEW0 582-685): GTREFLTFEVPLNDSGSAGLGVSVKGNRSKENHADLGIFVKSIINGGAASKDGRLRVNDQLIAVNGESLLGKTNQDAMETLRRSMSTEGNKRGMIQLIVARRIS
Sequence of TJP2_1, Q9UDY2 (Q9UDY2 24-128): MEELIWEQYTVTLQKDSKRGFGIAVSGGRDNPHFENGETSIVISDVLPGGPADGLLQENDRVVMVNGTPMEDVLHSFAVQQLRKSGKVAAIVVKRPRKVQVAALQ
Sequence of IL16_1, Q14005 (Q14005 210-306): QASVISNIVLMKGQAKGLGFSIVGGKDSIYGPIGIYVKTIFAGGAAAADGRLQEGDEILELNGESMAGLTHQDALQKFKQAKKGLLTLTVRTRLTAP
Sequence of GRID2IP_2, A4D2P6 (A4D2P6 272-370): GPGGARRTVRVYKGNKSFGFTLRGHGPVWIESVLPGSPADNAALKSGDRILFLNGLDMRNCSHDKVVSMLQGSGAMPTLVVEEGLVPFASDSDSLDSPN
Sequence of DLG4_2, P78352 (P78352 155-259): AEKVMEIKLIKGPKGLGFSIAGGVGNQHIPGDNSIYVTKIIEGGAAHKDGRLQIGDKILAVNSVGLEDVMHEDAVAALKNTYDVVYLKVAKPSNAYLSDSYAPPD

B1: ABRAXAS2, Q15018 (peptide)
chain: DPRNTQTSQI
In the case of B1, the pKd (GRIP2_4, Q9C0E4; [1]) is reported as “below the threshold”, the pKd (TJP2_1, Q9UDY2; [1]) is reported as “below the threshold” and the pKd (MAGI1_1, Q96QZ7; [1]) is reported as “below the threshold”. For the same binder, the pKd (PTPN3, P26045; [1]) was 3.77, the pKd (DLG3_1, Q92796; [1]) was 3.56 and the pKd (APBA3_1, O96018; [1]) was “below the threshold”. For the same binder, the pKd (SNX27, Q96L92; [1]) was 4.04, the pKd (NHERF4_4, Q86UT5; [1]) was “below the threshold” and the pKd (FRMPD3, Q5JV73; [1]) was “below the threshold”. The pKd (ARHGEF11, O15085; [1]) was 4.03, the pKd (LNX2_3, Q8N448; [1]) was “below the threshold” and the pKd (GRIP1_4, Q9Y3R0; [1]) was “below the threshold”. For the same binder, the pKd (MAST2, Q6P0Q8; [1]) was 4.55, the pKd (SCRIB_1, Q14160; [1]) was 4.02 and the pKd (DLG4_2, P78352; [1]) was 3.55. For the same binder, the pKd (LNX1_2, Q8TBB1; [1]) was “below the threshold”, the pKd (IL16_4, Q14005; [1]) was 3.66 and the pKd (LRRC7, Q96NW7; [1]) was “below the threshold”. The pKd (GRID2IP_2, A4D2P6; [1]) was 4.24, the pKd (PDZD2_2, O15018; [1]) was 4.44 and the pKd (GRIP2_6, Q9C0E4; [1]) was “below the threshold”. It also gave a pKd (SYNJ2BP, P57105; [1]) of 3.68, a pKd (DFNB31_1, Q9P202; [1]) of 4.06 and a pKd (IL16_1, Q14005; [1]) of 3.59. For the same binder, the pKd (PARD3_3, Q8TEW0; [1]) was 3.64, the pKd (HTRA3, P83110; [1]) was “below the threshold” and the pKd (MAGI3_2, Q5TCQ9; [1]) was “below the threshold”.

B2: HPV51-E6, P26554 (peptide)
chain: RTRQRNETQV
For B2, the pKd (GRIP2_4, Q9C0E4; [1]) was “below the threshold”, the pKd (TJP2_1, Q9UDY2; [1]) was “below the threshold” and the pKd (MAGI1_1, Q96QZ7; [1]) was “below the threshold”. For the same binder, the pKd (PTPN3, P26045; [1]) was 4.38, the pKd (DLG3_1, Q92796; [1]) was 4.28 and the pKd (APBA3_1, O96018; [1]) was “below the threshold”. The pKd (SNX27, Q96L92; [1]) was 4.85, the pKd (NHERF4_4, Q86UT5; [1]) was “below the threshold” and the pKd (FRMPD3, Q5JV73; [1]) was “below the threshold”. For the same binder, the pKd (ARHGEF11, O15085; [1]) was 3.69, the pKd (LNX2_3, Q8N448; [1]) was “below the threshold” and the pKd (GRIP1_4, Q9Y3R0; [1]) was “below the threshold”. It also gave a pKd (MAST2, Q6P0Q8; [1]) of 5.27, a pKd (SCRIB_1, Q14160; [1]) of 4.56 and a pKd (DLG4_2, P78352; [1]) of 4.99. The pKd (LNX1_2, Q8TBB1; [1]) was “below the threshold”, the pKd (IL16_4, Q14005; [1]) was “below the threshold” and the pKd (LRRC7, Q96NW7; [1]) was “below the threshold”. The pKd (GRID2IP_2, A4D2P6; [1]) was “below the threshold”, the pKd (PDZD2_2, O15018; [1]) was 3.58 and the pKd (GRIP2_6, Q9C0E4; [1]) was “below the threshold”. The pKd (SYNJ2BP, P57105; [1]) was 5.02, the pKd (DFNB31_1, Q9P202; [1]) was 3.47 and the pKd (IL16_1, Q14005; [1]) was “below the threshold”. The pKd (PARD3_3, Q8TEW0; [1]) was “below the threshold”, the pKd (HTRA3, P83110; [1]) was “below the threshold” and the pKd (MAGI3_2, Q5TCQ9; [1]) was 5.83.

B3: AGMAT, Q9BSE5 (peptide)
chain: LCALPKVTTV
For B3, the pKd (GRIP2_4, Q9C0E4; [1]) was “below the threshold”, the pKd (TJP2_1, Q9UDY2; [1]) was 3.91 and the pKd (MAGI1_1, Q96QZ7; [1]) was “below the threshold”. For the same binder, the pKd (PTPN3, P26045; [1]) was 4.4, the pKd (DLG3_1, Q92796; [1]) was 4.27 and the pKd (APBA3_1, O96018; [1]) was “below the threshold”. For the same binder, the pKd (SNX27, Q96L92; [1]) was 4.43, the pKd (NHERF4_4, Q86UT5; [1]) was “below the threshold” and the pKd (FRMPD3, Q5JV73; [1]) was “below the threshold”. For the same binder, the pKd (ARHGEF11, O15085; [1]) was 4.52, the pKd (LNX2_3, Q8N448; [1]) was “below the threshold” and the pKd (GRIP1_4, Q9Y3R0; [1]) was “below the threshold”. It also gave a pKd (MAST2, Q6P0Q8; [1]) of 4.88, a pKd (SCRIB_1, Q14160; [1]) of 4.39 and a pKd (DLG4_2, P78352; [1]) of 5.29. For the same binder, the pKd (LNX1_2, Q8TBB1; [1]) was 4.42, the pKd (IL16_4, Q14005; [1]) was “below the threshold” and the pKd (LRRC7, Q96NW7; [1]) was 3.63. For the same binder, the pKd (GRID2IP_2, A4D2P6; [1]) was 4.01, the pKd (PDZD2_2, O15018; [1]) was 4.44 and the pKd (GRIP2_6, Q9C0E4; [1]) was “below the threshold”. For the same binder, the pKd (SYNJ2BP, P57105; [1]) was 4.35, the pKd (DFNB31_1, Q9P202; [1]) was “below the threshold” and the pKd (IL16_1, Q14005; [1]) was 4.06. The pKd (PARD3_3, Q8TEW0; [1]) was 3.62, the pKd (HTRA3, P83110; [1]) was 3.71 and the pKd (MAGI3_2, Q5TCQ9; [1]) was 4.82.

B4: SLC23A1, Q9UHI7 (peptide)
chain: TETASVCTKV
For B4, the pKd (GRIP2_4, Q9C0E4; [2]) was “below the threshold”, the pKd (TJP2_1, Q9UDY2; [2]) was 3.72 and the pKd (MAGI1_1, Q96QZ7; [2]) was “below the threshold”. The pKd (PTPN3, P26045; [2]) was 3.97, the pKd (DLG3_1, Q92796; [2]) was “below the threshold” and the pKd (APBA3_1, O96018; [2]) was “below the threshold”. For the same binder, the pKd (SNX27, Q96L92; [2]) was 4.85, the pKd (NHERF4_4, Q86UT5; [2]) was 3.89 and the pKd (FRMPD3, Q5JV73; [2]) was “below the threshold”. The pKd (ARHGEF11, O15085; [2]) was 4.24, the pKd (LNX2_3, Q8N448; [2]) was “below the threshold” and the pKd (GRIP1_4, Q9Y3R0; [2]) was “below the threshold”. The pKd (MAST2, Q6P0Q8; [2]) was 5.47, the pKd (SCRIB_1, Q14160; [2]) was 3.99 and the pKd (DLG4_2, P78352; [2]) was 4.15. The pKd (LNX1_2, Q8TBB1; [2]) was “below the threshold”, the pKd (IL16_4, Q14005; [2]) was 3.55 and the pKd (LRRC7, Q96NW7; [2]) was “below the threshold”. For the same binder, the pKd (GRID2IP_2, A4D2P6; [2]) was 3.98, the pKd (PDZD2_2, O15018; [2]) was 4.12 and the pKd (GRIP2_6, Q9C0E4; [2]) was “below the threshold”. For the same binder, the pKd (SYNJ2BP, P57105; [2]) was “below the threshold”, the pKd (DFNB31_1, Q9P202; [2]) was 4.18 and the pKd (IL16_1, Q14005; [2]) was “below the threshold”. The pKd (PARD3_3, Q8TEW0; [2]) was “below the threshold”, the pKd (HTRA3, P83110; [2]) was “below the threshold” and the pKd (MAGI3_2, Q5TCQ9; [2]) was 4.18.
